This note sets out measurements from patent US20160272721A1 (NEOMICS, published 2016).

B1: H5 Fab (Fab, V domains shown)
VH: QEQLVESGGGLVTPGGTLTLTCTASGFTISSYHMTWVRQAPGKGLEWIGVISNSGGTSYANWAKGRFTISKTSTTVDLKITSPTTEDTATYFCVRGVPGINSNLWGQGTLVTISS
VL: AQVLTQTPSSVSAAVGGTVTINCQSSQSVYSGNWLAWYQQKPGQPPKLLIYSTSTLASGVPSRFKGSGSGTQFTLTVSDLECDDAATYYCAGDYDGYKNAFGGGTKVVVKR
notes: Detected with anti-HA tag or anti-human Fab antibody, so vector tags may be present; they are not described; also called antibody fragment H5 Fab; antibody (Fab) of colon H5
B3: AIMP2-DX2 epitope peptide (amino acid residues 42 to 52, GHVQDYGALKD, of the AIMP2-DX2 protein) (peptide)
peptide: GHVQDYGALKD

In assay [1] the target is T1, AIMP2 protein (wild type, full-length) (human, UniProt Q13155 1-312, limits assumed).
T1 construct: 217 is written here; B42 fusion (pJG4-5) in yeast two hybrid; 35S-labelled in vitro translation product in the pull-down; endogenous in A549, DU145 and H460 cells; also called AIMP2-F; p38
T1 sequence: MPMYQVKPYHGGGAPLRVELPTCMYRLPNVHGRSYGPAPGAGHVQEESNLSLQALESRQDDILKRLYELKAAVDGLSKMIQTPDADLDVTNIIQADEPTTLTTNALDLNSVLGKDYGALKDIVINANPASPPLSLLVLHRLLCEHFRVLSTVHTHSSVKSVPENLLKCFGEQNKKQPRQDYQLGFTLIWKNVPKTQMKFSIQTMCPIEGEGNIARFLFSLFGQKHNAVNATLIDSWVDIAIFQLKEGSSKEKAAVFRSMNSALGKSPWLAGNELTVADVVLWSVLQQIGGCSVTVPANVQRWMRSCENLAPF
Description: Western blot of H460 cell lysates (FIG. 22). The method, then:
Lastly, it was tested whether H5 antibody is capable of differentiating AIMP2-DX2 from wild type AIMP2 protein (See FIG. 22). Western blot analysis was performed on H460 cell lysates using the H5 antibody.
(In general: A western blot detects proteins with antibodies after separation by electrophoresis.)

Assay [2] addresses T2, AIMP2-DX2 with twenty three (23) N-terminal amino acids deleted, fused with strep tag (human, UniProt Q13155 24-320).
T2 construct: Expressed in HEK293T cells, tested in cell lysate; also called Δ23-DX2; Δ23; not shown: strep tag of thirty amino acids including a linker peptide
T2 sequence: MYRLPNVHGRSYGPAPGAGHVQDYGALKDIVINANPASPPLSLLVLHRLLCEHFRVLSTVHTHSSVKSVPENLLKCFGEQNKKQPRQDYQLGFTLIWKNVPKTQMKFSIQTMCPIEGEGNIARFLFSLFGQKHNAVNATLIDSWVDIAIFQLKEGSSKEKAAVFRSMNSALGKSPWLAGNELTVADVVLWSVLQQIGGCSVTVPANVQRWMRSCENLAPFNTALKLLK
Description: Western blot of HEK293T lysates (FIG. 20a). An excerpt: (§1) FIG. 20a and FIG. 20b show a test result of determining the effect of N-terminal amino acid deletion of the AIMP2-DX2 protein on the binding between the H5 Fab and the AIMP2-DX2 protein. […] Being fused with strep tag, the AIMP2-DX2 proteins expressed in HEK293T cells were the full-length AIMP2-DX2 protein (“F-DX2” or “F”) and its N-terminal deleted isotypes (“42-DX2” or “42” for two (2) amino acid deletion; “423-DX2” or “423” for twenty three (23) amino acid deletion; “433-DX2” or “433” for thirty three (33) amino acid deletion), respectively. […] “EV” means an empty vector.
(§2) Further, the effect of N-terminal amino acid deletion of the AIMP2-DX2 protein on the binding between H5 Fab and AIMP2-DX2 protein was analyzed (See FIG. 20). It was reported that N-terminal amino acid residues of the AIMP2-DX2 exert a significant effect on the solubility of the AIMP2-DX2. AIMP2-DX2 derivatives in which the N-terminal two (2), twenty three (23) or thirty three (33) amino acid residues were deleted, respectively, were prepared (See FIG. 20b). The full-length AIMP2-DX2 and its isotypes were fused with strep tag and then expressed in the HEK293T cells, followed by Western blot analysis using H5 Fab.

The target in assay [3] is T3, AIMP2-DX2 with thirty three (33) N-terminal amino acids deleted, fused with strep tag (human, UniProt Q13155 34-320).
T3 construct: Expressed in HEK293T cells, tested in cell lysate; also called Δ33-DX2; Δ33; not shown: strep tag of thirty amino acids including a linker peptide
T3 sequence: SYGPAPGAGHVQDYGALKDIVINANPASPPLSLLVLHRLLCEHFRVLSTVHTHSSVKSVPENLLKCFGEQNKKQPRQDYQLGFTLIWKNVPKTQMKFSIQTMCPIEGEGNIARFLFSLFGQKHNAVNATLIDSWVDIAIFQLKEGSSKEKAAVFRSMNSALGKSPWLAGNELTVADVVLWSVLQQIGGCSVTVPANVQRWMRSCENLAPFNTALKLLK
Put plainly: Western blot of HEK293T lysates (FIG. 20a).
From the text: as §1, §2

Assay [4] concerns the target T4, AIMP2-DX2 with two (2) N-terminal amino acids deleted, fused with strep tag (human, UniProt Q13155 3-320).
T4 construct: Expressed in HEK293T cells, tested in cell lysate; also called Δ2-DX2; Δ2; not shown: strep tag of thirty amino acids including a linker peptide
T4 sequence: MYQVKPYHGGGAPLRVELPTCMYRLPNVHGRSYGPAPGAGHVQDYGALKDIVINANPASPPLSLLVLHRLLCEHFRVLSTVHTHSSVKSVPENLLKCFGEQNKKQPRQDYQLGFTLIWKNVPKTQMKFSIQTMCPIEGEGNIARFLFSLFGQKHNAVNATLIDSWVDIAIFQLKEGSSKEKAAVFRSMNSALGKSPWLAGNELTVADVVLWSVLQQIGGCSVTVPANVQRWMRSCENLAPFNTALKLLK
Description: Western blot of HEK293T lysates (FIG. 20a).
From the text: as §1, §2

The target in assay [5] is B3. Description: surface plasmon resonance, H5 IgG on CM5 chip, peptide in flow (FIG. 21a). An excerpt:
H5 antibody and IgG proteins were coated on the CM5 chips, while the exemplary AIMP2-DX2 epitope peptide (i.e. amino acid residues 42 to 52 ([…]) as shown in SEQ ID NO: 2 or SEQ ID NO: 17) at various concentrations was flowed over the chip. As shown in FIG. 21a and FIG. 21b, the binding affinity between H5 IgG antibody and the AIMP2-DX2 epitope peptide was indicated in sensorgram. X axis of sensorgram indicates time (second, s), while y axis means response (response unit, RU). The description in a box indicates a concentration of the AIMP2-DX2 epitope peptide in nM.
Still further, the binding affinity between H5 IgG antibody and the exemplary AIMP2-DX2 epitope peptide was determined by using surface plasmon resonance analysis (See FIG. 21). The H5 antibody (IgG) and IgG proteins were coated on the CM5 chips, while the exemplary AIMP2-DX2 epitope peptide at various concentrations was flowed over the chip to monitor the real time association and dissociation between H5 antibody and the exemplary AIMP2-DX2 epitope peptide. Analysis reagents and buffer were injected at the flow velocity of 15 μl/min. for 6 min, followed by washing for 20 min. Analysis was performed in sensorgram in which a response result of a blank without protein coating is subtracted from a response results between H5 antibody or IgG and the AIMP2-DX2 epitope peptides.
(In general: In SPR one partner is held on a chip, and binding of the other changes the refractive index at the surface.)

The assay “H5 Fab” has as its target B1. Description: antigen pre-adsorption, 100 µg/ml peptide with H5 Fab, Western blot of H460 lysate (FIG. 18). The protocol: Firstly, antigen pre-adsorption analysis was conducted in order to confirm whether the prepared H5 Fab specifically binds to the AIMP2-DX2. After electrophoresis of cell lysates of H460 lung cancer cells which expressed the AIMP2-DX2, Western blot analysis was performed using a H5 Fab in the presence of 100 μg/ml of the AIMP2-DX2 epitope polypeptide ([…]) (indicated as “+” in FIG. 18) and a H5 Fab without the addition of the AIMP2-DX2 epitope peptide (indicated as “−” in FIG. 18), respectively.

Another assay addresses T5, Smad2 (human) (human, UniProt Q15796 1-467, limits assumed).
T5 construct: LexA fusion (pEG202) in yeast two hybrid; also called R-Smad2; Lex-Smad2
Put plainly: yeast two hybrid (FIG. 4e).

The target of a further assay is T6, FUSE-binding protein (UniProt Q96AE4 1-644, limits assumed).
T6 construct: Yeast two hybrid fusion; construct not described; also called FBP
T6 sequence (looked up): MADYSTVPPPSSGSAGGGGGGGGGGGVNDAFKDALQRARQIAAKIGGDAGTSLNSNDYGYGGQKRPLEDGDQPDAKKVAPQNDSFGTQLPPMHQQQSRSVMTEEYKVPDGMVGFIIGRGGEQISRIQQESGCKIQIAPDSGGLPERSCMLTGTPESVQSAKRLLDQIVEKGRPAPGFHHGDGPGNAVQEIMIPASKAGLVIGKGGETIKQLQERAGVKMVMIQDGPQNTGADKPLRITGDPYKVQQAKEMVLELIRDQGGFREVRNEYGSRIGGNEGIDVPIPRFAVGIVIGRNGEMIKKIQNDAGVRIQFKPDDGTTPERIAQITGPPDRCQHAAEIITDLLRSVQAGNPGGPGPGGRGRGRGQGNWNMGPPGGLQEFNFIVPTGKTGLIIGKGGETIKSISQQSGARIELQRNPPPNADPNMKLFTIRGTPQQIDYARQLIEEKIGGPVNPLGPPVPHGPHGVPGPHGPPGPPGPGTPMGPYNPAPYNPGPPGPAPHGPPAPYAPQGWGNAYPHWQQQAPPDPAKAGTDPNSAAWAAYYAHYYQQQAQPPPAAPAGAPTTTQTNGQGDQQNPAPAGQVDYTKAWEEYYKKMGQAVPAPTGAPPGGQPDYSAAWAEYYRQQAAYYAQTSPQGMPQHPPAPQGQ
Description: yeast two hybrid (FIG. 4e).

T5 sequence (Q15796 whole entry, the tested form may be a part): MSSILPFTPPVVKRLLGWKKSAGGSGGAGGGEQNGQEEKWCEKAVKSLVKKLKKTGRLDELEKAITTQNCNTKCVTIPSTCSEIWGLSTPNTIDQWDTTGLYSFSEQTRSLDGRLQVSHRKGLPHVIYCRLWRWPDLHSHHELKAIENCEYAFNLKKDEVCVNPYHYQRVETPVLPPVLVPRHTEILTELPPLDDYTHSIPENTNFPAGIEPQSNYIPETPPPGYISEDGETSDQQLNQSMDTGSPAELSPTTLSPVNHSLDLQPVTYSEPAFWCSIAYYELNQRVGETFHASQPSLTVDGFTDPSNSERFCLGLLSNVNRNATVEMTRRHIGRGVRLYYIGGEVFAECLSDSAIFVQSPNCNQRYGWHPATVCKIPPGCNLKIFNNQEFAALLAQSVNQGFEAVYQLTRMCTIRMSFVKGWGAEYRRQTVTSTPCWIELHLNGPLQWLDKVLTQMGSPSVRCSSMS

B1: the binding result in assay [1] is “no binding”; in assay [2], “binds”; in assay [3], “binds”; in assay [4] it was “binds”.

B2: H5 IgG antibody (antibody, V domains shown)
VH: QEQLVESGGGLVTPGGTLTLTCTASGFTISSYHMTWVRQAPGKGLEWIGVISNSGGTSYANWAKGRFTISKTSTTVDLKITSPTTEDTATYFCVRGVPGINSNLWGQGTLVTISS
VL: AQVLTQTPSSVSAAVGGTVTINCQSSQSVYSGNWLAWYQQKPGQPPKLLIYSTSTLASGVPSRFKGSGSGTQFTLTVSDLECDDAATYYCAGDYDGYKNAFGGGTKVVVKR
notes: also called H5 antibody (IgG); H5 antibody
Regarding B2, the binding result in assay [5] was “binds”.

For the molecule B3, the binding result with H5 Fab is recorded as “binds”.

B4: AIMP2-DX2 protein (other)
chain: MPMYQVKPYHGGGAPLRVELPTCMYRLPNVHGRSYGPAPGAGHVQDYGALKDIVINANPASPPLSLLVLHRLLCEHFRVLSTVHTHSSVKSVPENLLKCFGEQNKKQPRQDYQLGFTLIWKNVPKTQMKFSIQTMCPIEGEGNIARFLFSLFGQKHNAVNATLIDSWVDIAIFQLKEGSSKEKAAVFRSMNSALGKSPWLAGNELTVADVVLWSVLQQIGGCSVTVPANVQRWMRSCENLAPFNTALKLLK
notes: Endogenous protein in H460 or SW460 cell lysates in the Western blots; LexA/B42 fusion in yeast two hybrid; 35S-labelled in vitro translation product (pET-28a) in the pull-down; also called p38DX2; AIMP2 lacking exon 2
As for B4, the binding result with Smad2 (human) and with FUSE-binding protein was “no binding” each time.
